# Publication PMC11077950
# pKd: −log10 of the molar value.
# What was measured:
# TNfxB3 = experiment: SPR; settings: EMSA: PBS (137 mM NaCl, 2.7 mM KCl, 8 mM Na2HPO4, 2 mM KH2PO4), 2 uL glycerin in 20 uL, 80 ng DNA, 5-70 pmol protein, 25 C, 30 min, 30 uL/min …
# [1] = target: T1, NfxB T39R T51R (Pseudomonas aeruginosa PAO1) (UniProt P32265); experiment: EMSA; settings: EMSA: PBS (137 mM NaCl, 2.7 mM KCl, 8 mM Na2HPO4, 2 mM KH2PO4), 2 uL glycerin in 20 uL, 80 ng DNA, 5-70 pmol protein, 25 C, 30 min, SPR: PBS, 30 uL/min …
# T1 sequence: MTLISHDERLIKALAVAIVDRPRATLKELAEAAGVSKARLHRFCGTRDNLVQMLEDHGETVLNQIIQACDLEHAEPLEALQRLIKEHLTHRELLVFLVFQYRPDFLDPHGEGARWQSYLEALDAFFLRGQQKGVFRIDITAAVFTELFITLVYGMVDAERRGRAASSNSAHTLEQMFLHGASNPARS
Sequence,pKd (TNfxB3),binding [1]
"ATACTAGCTTTGTTCACACCAAAATCAAATGAGTCAATATTGACTTATTTGATTTTTGCGTGGATCATGCGCGGCTTCGAC (double strand) [SPR operator DNA with two inverted repeats, 81 bp]",6.04,
"CTCATCGGCAGCAGTTAAATCCATCGGTCACTCTTTATCTATCGCGGGCAGATGCGGGTATTTTGCCTAGAACACTCATTTTTCTCAAAGAGGATACTAGCTTTGTTCACACCAAAATCAAATGAGTCAATATTGACTTATTTGATTTTTGCGTGGATCATGCGCGGCTTCGACTACGTACTGGCTTCGTGCTTGGGTGAGATATGAACAAATTCCGCGAATGGATCAC (double strand) [tnfxB1-tmexC1 intergenic DNA (PtmexC1), EMSA]",,binds more weakly
